The record followed here is PMC10952621, “Long QT syndrome‐associated calmodulin variants disrupt the activity of the slowly activating delayed rectifier potassium channel” (The Journal of Physiology, 2023).

The assay has as its target human wild-type calmodulin (CaM-WT) (human, UniProt P0DP23 2-149). Nature of the assay: ITC; Kv7.1-HA peptide titrated into CaM (~50 uM) in the cell; 50 mM Na-HEPES, 100 mM KCl, 2 mM MgCl2, pH 7.5, 5 mM CaCl2; 25 °C; one-site binding model. To be noted: both partners purified. A general note: In ITC the heat of successive injections is recorded.

B1: Kv7.1-HA(370-389) peptide, helix A of the KCNQ1 C-terminus (peptide)
peptide: AAASLIQTAWRCYAAENPDS
notes: source: synthetic peptide (GenicBio, HPLC purified, >95% purity)
B1: the Kd was ~96 µM.

Usually Kd stands for the free concentration of one partner at which half of the binding sites on the other are occupied at equilibrium, for simple one-to-one binding.
